Laboratory results taken from PMC6058786.

Biological target: Pin1 WW-domain (UniProt Q13526)
Test: isothermal titration calorimetry
Settings: reference: unphosphorylated TFCD peptide; sites S258,S253

Tissue Factor (TF) cytoplasmic domain (TFCD) (from UniProt P13726) double phosphorylated TFCD peptide
KD: stronger; reference 1.53 mM
